Patent US20240016931A1 (JIANGSU HENGRUI PHARMACEUTICALS, published 2024)

B1: hu199-07 (antibody, human IgG1, kappa, V domains shown)
VH: EVQLVQSGAEVKKPGASVKVSCKASGYTFTTYWMHWVRQAPGQGLEWMGMIDPSDSETTLIQKFKDRVTLTVDKSTSTAYMELSSLRSEDTAVYYCARTLDGYYDYWGQGTTVTVSS
VL: DIQMTQSPSSLSASVGDRVTITCRASENIYSYLAWYQQKPGKAPKLLIYFAKTLAEGVPSRFSGSGSGTDFTLTISSLQPEDFATYYCQHHYGTPWTFGGGTKVEIKR
notes: IgG1-YTE, kappa
B2: hu199-18 (antibody, human IgG1, kappa, V domains shown)
VH: EVQLVQSGAEVKKPGASVKVSCKASGYTFTTYWMHWVRQAPGQGLEWIGMIDPSDSETTLIQKFKDRATLTVDKSTSTAYMELSSLRSEDTAVYYCARTLDGYYDYWGQGTTVTVSS
VL: DIQMTQSPSSLSASVGDRVTITCRASENIYSYLAWYQQKPGKSPQLLVYFAKTLAEGVPSRFSGSVSGTQFTLTISSLQPEDFATYYCQHHYGTPWTFGGGTKVEIKR
notes: IgG1-YTE, kappa
B3: hu199-09 (antibody, human IgG1, kappa, V domains shown)
VH: EVQLVQSGAEVKKPGASVKVSCKASGYTFTTYWMHWVRQAPGQGLEWMGMIDPSDSETTLIQKFKDRVTLTVDKSTSTAYMELSSLRSEDTAVYYCARTLDGYYDYWGQGTTVTVSS
VL: DIQMTQSPSSLSASVGDRVTITCRASENIYSYLAWYQQKPGKSPQLLVYFAKTLAEGVPSRFSGSGSGTQFTLTISSLQPEDFATYYCQHHYGTPWTFGGGTKVEIKR
notes: IgG1-YTE, kappa
B4: hu199-12 (antibody, human IgG1, kappa, V domains shown)
VH: EVQLVQSGAEVKKPGASVKVSCKASGYTFTTYWMHWVRQAPGQGLEWMGMIDPSDSETTLIQKFKDRVTLTVDKSTSTAYMELSSLRSEDTAVYYCARTLDGYYDYWGQGTTVTVSS
VL: DIQMTQSPSSLSASVGDRVTITCRASENIYSYLAWYQQKPGKSPQLLVYFAKTLAEGVPSRFSGSVSGTQFTLTISSLQPEDFATYYCQHHYGTPWTFGGGTKVEIKR
notes: IgG1-YTE, kappa
B5: hu199-16 (antibody, human IgG1, kappa, V domains shown)
VH: EVQLVQSGAEVKKPGASVKVSCKASGYTFTTYWMHWVRQAPGQGLEWIGMIDPSDSETTLIQKFKDRATLTVDKSTSTAYMELSSLRSEDTAVYYCARTLDGYYDYWGQGTTVTVSS
VL: DIQMTQSPSSLSASVGDRVTITCRASENIYSYLAWYQQKPGKAPKLLIYFAKTLAEGVPSRFSGSVSGTDFTLTISSLQPEDFATYYCQHHYGTPWTFGGGTKVEIKR
notes: IgG1-YTE, kappa
B6: hu199-11 (antibody, human IgG1, kappa, V domains shown)
VH: EVQLVQSGAEVKKPGASVKVSCKASGYTFTTYWMHWVRQAPGQGLEWMGMIDPSDSETTLIQKFKDRVTLTVDKSTSTAYMELSSLRSEDTAVYYCARTLDGYYDYWGQGTTVTVSS
VL: DIQMTQSPSSLSASVGDRVTITCRASENIYSYLAWYQQKPGKAPKLLVYFAKTLAEGVPSRFSGSVSGTDFTLTISSLQPEDFATYYCQHHYGTPWTFGGGTKVEIKR
notes: IgG1-YTE, kappa
B7: hu199-19 (antibody, human IgG1, kappa, V domains shown)
VH: EVQLVQSGAEVKKPGASVKVSCKASGYTFTTYWMHWVKQAPGQGLEWIGMIDPSDSETTLIQKFKDKATLTVDKSTSTAYMELSSLRSEDTAVYYCARTLDGYYDYWGQGTTVTVSS
VL: DIQMTQSPSSLSASVGDRVTITCRASENIYSYLAWYQQKPGKAPKLLIYFAKTLAEGVPSRFSGSGSGTDFTLTISSLQPEDFATYYCQHHYGTPWTFGGGTKVEIKR
notes: IgG1-YTE, kappa
B8: hu199-13 (antibody, human IgG1, kappa, V domains shown)
VH: EVQLVQSGAEVKKPGASVKVSCKASGYTFTTYWMHWVRQAPGQGLEWIGMIDPSDSETTLIQKFKDRATLTVDKSTSTAYMELSSLRSEDTAVYYCARTLDGYYDYWGQGTTVTVSS
VL: DIQMTQSPSSLSASVGDRVTITCRASENIYSYLAWYQQKPGKAPKLLIYFAKTLAEGVPSRFSGSGSGTDFTLTISSLQPEDFATYYCQHHYGTPWTFGGGTKVEIKR
notes: IgG1-YTE, kappa
B9: hu199-10 (antibody, human IgG1, kappa, V domains shown)
VH: EVQLVQSGAEVKKPGASVKVSCKASGYTFTTYWMHWVRQAPGQGLEWMGMIDPSDSETTLIQKFKDRVTLTVDKSTSTAYMELSSLRSEDTAVYYCARTLDGYYDYWGQGTTVTVSS
VL: DIQMTQSPSSLSASVGDRVTITCRASENIYSYLAWYQQKPGKAPKLLIYFAKTLAEGVPSRFSGSVSGTDFTLTISSLQPEDFATYYCQHHYGTPWTFGGGTKVEIKR
notes: IgG1-YTE, kappa
B10: hu199-15 (antibody, human IgG1, kappa, V domains shown)
VH: EVQLVQSGAEVKKPGASVKVSCKASGYTFTTYWMHWVRQAPGQGLEWIGMIDPSDSETTLIQKFKDRATLTVDKSTSTAYMELSSLRSEDTAVYYCARTLDGYYDYWGQGTTVTVSS
VL: DIQMTQSPSSLSASVGDRVTITCRASENIYSYLAWYQQKPGKSPQLLVYFAKTLAEGVPSRFSGSGSGTQFTLTISSLQPEDFATYYCQHHYGTPWTFGGGTKVEIKR
notes: IgG1-YTE, kappa
B11: hu199-23 (antibody, human IgG1, kappa, V domains shown)
VH: EVQLVQSGAEVKKPGASVKVSCKASGYTFTTYWMHWVKQAPGQGLEWIGMIDPSDSETTLIQKFKDKATLTVDKSTSTAYMELSSLRSEDTAVYYCARTLDGYYDYWGQGTTVTVSS
VL: DIQMTQSPSSLSASVGDRVTITCRASENIYSYLAWYQQKPGKAPKLLVYFAKTLAEGVPSRFSGSVSGTDFTLTISSLQPEDFATYYCQHHYGTPWTFGGGTKVEIKR
notes: IgG1-YTE, kappa
B12: hu199-14 (antibody, human IgG1, kappa, V domains shown)
VH: EVQLVQSGAEVKKPGASVKVSCKASGYTFTTYWMHWVRQAPGQGLEWIGMIDPSDSETTLIQKFKDRATLTVDKSTSTAYMELSSLRSEDTAVYYCARTLDGYYDYWGQGTTVTVSS
VL: DIQMTQSPSSLSASVGDRVTITCRASENIYSYLAWYQQKPGKAPKLLVYFAKTLAEGVPSRFSGSGSGTDFTLTISSLQPEDFATYYCQHHYGTPWTFGGGTKVEIKR
notes: IgG1-YTE, kappa
B13: hu199-21 (antibody, human IgG1, kappa, V domains shown)
VH: EVQLVQSGAEVKKPGASVKVSCKASGYTFTTYWMHWVKQAPGQGLEWIGMIDPSDSETTLIQKFKDKATLTVDKSTSTAYMELSSLRSEDTAVYYCARTLDGYYDYWGQGTTVTVSS
VL: DIQMTQSPSSLSASVGDRVTITCRASENIYSYLAWYQQKPGKSPQLLVYFAKTLAEGVPSRFSGSGSGTQFTLTISSLQPEDFATYYCQHHYGTPWTFGGGTKVEIKR
notes: IgG1-YTE, kappa
B14: hu199-17 (antibody, human IgG1, kappa, V domains shown)
VH: EVQLVQSGAEVKKPGASVKVSCKASGYTFTTYWMHWVRQAPGQGLEWIGMIDPSDSETTLIQKFKDRATLTVDKSTSTAYMELSSLRSEDTAVYYCARTLDGYYDYWGQGTTVTVSS
VL: DIQMTQSPSSLSASVGDRVTITCRASENIYSYLAWYQQKPGKAPKLLVYFAKTLAEGVPSRFSGSVSGTDFTLTISSLQPEDFATYYCQHHYGTPWTFGGGTKVEIKR
notes: IgG1-YTE, kappa
B15: hu199-20 (antibody, human IgG1, kappa, V domains shown)
VH: EVQLVQSGAEVKKPGASVKVSCKASGYTFTTYWMHWVKQAPGQGLEWIGMIDPSDSETTLIQKFKDKATLTVDKSTSTAYMELSSLRSEDTAVYYCARTLDGYYDYWGQGTTVTVSS
VL: DIQMTQSPSSLSASVGDRVTITCRASENIYSYLAWYQQKPGKAPKLLVYFAKTLAEGVPSRFSGSGSGTDFTLTISSLQPEDFATYYCQHHYGTPWTFGGGTKVEIKR
notes: IgG1-YTE, kappa
B16: hu199-22 (antibody, human IgG1, kappa, V domains shown)
VH: EVQLVQSGAEVKKPGASVKVSCKASGYTFTTYWMHWVKQAPGQGLEWIGMIDPSDSETTLIQKFKDKATLTVDKSTSTAYMELSSLRSEDTAVYYCARTLDGYYDYWGQGTTVTVSS
VL: DIQMTQSPSSLSASVGDRVTITCRASENIYSYLAWYQQKPGKAPKLLIYFAKTLAEGVPSRFSGSVSGTDFTLTISSLQPEDFATYYCQHHYGTPWTFGGGTKVEIKR
notes: IgG1-YTE, kappa

Biological target: T1, Fc-tagged human TSLP antigen (huTSLP-Fc) (human, biotin-labeled in the blocking assays)
T1 construct: whole entry named; also called recombinant human TSLP-Fc
Test: competition ELISA: blocks TSLP binding to TSLP receptor

Row | Binder | IC50
1 | B1 | 283 pM
2 | B2 | 481 pM
3 | B3 | 273 pM
4 | B4 | 370 pM
5 | B5 | 737 pM
6 | B6 | 365 pM
7 | B7 | 658 pM
8 | B8 | 240 pM
9 | B9 | 391 pM
10 | B10 | 287 pM
11 | B11 | 337 pM
12 | B12 | 311 pM
13 | B13 | 535 pM
14 | B14 | 611 pM
15 | B15 | 400 pM
16 | B16 | 345 pM
